Patent US12679888B2, “IL-18 binding protein (IL-18BP) and antibodies for treating inflammatory diseases” (AB2 BIO SA, priority 2015, dated 2026)
Several values for one entry are separate records, joined by “and”; a condition that tells them apart may be missing. Equal values may be shown once. Read-outs that look alike come from different tables or passages of the source.

T1: IL-18 previously complexed to IL-18BP (Homo sapiens, UniProt Q14116)
T1 sequence (Q14116 37-193): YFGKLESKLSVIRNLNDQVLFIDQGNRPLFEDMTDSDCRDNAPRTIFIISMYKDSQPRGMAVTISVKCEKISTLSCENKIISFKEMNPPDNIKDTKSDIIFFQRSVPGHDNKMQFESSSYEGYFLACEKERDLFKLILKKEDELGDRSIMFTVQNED
T1 sequence (O95998 31-194 partner): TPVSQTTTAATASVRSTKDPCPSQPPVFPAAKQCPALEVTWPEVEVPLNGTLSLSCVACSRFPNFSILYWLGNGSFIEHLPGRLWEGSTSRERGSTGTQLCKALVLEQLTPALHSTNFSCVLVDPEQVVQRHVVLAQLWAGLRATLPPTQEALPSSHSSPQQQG

T2: human interleukin-18 (Homo sapiens, UniProt Q14116)
T2 sequence (Q14116 37-193): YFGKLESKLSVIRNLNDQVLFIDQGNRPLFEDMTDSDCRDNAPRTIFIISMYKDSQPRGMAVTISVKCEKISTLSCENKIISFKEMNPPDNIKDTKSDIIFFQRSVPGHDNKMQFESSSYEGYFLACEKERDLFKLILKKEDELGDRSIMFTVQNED

T3: IL-18 (Homo sapiens, UniProt Q14116)
T3 sequence (Q14116 37-193): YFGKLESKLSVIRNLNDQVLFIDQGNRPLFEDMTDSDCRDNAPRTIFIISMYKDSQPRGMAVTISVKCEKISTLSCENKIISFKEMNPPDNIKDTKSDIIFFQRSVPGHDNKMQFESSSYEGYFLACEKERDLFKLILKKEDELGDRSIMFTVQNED


Key:
[1] = target: T1, IL-18 previously complexed to IL-18BP; assay: Luminex screening third step: monoclonal antibody binding on IL-18 previously complexed to IL-18BP; settings: for fluorescence signal after binding IL-18 in the presence of IL-18BP: third screening step
Description: Third step. A third screening program was undertaken with Luminex beads linked to IL-18BP and then complexed to interleukin-18, assuring the presentation of properly folded recombinant IL-18 to positive antibody candidates.

human interleukin-18 = target: T2, human interleukin-18; assay: Luminex screening first step: monoclonal antibodies binding on IL-18; settings: IL-18 attached to Luminex beads
Description: Mice were vaccinated against human interleukin-18 using a technology allowing immunization with properly folded proteins. Prior to immunization, genetically modified mice were selected for major histocompatibility complexes supposedly sensitive to IL-18 surface area epitopes binding IL-18BP. Following immunization, B cells were isolated from spleen and hybridized following standard hybridoma technology. Hybridoma were sorted onto microplates and then tested for expression of monoclonal anti-IL-18 antibodies targeting IL-18 epitopes included in IL-18BP binding site. The screening was performed in 3 sequential and selective steps: […]

IL-18 [2] = target: T3, IL-18; assay: KD of monoclonal antibodies by titration with a defined IL-18 molarity (EC50, Law of Mass Action); assay type: binding
Experimental: The respective KD values of each monoclonal antibody was calculated following titration of the antibodies with a defined IL-18 molarity and derived from the obtained EC50 values with the Law of Mass Action (see above).

IL-18 [3] = target: T3, IL-18; assay: Luminex screening second step: biotinylated IL-18BP binding on IL-18 previously complexed to monoclonal antibody
Description: Second step. Potential antibodies targeting IL-18 on IL-18BP binding site were rescreened in competition with IL-18BP, but not with IL-18BP fusions with Fc antibody domains, or other type of fusions, in order to prevent false antibody positive candidates due to steric hindrance created by the fused peptide. For this, monoclonal antibodies were bound to Luminex beads carrying IL-18. The complex was then exposed to biotinylated IL-18BP in order to identify interference to previously identified anti-IL-18 antibodies (see Table 7, Column #2).

Molecule	fluorescence signal after binding IL-18 in the presence of IL-18BP [1]	Monoclonal antibodies binding on IL-18, Fluorescence intensity (human interleukin-18)	Kd (IL-18 [2]; mean of determinations, read-out: KD, Mean) [nM]	Kd (IL-18 [2]; single determinations, read-out: KD)	IL-18BP binding on IL-18 previously complexed to monoclonal antibody, Fluorescence intensity (IL-18 [3])	Column #3 Monoclonal antibody binding on IL-18 previously complexed to IL-18BP, Fluorescence intensity ([1]; Luminex beads linked to IL-18BP, complexed to IL-18)
Antibody 109A6: monoclonal anti-IL-18 antibody; VH SEQ ID NO 13, VK SEQ ID NO 14 (antibody, V domains shown, Antibody 109A6 VH variable domain sequence; Antibody 109A6 VK variable domain sequence) VH: EVQLQQSGAELVKPGASVKLSCTASGFKIKDTYIHWVIQRPAQGLEWIGRIDPANGNTIYGSKFQGKATLTADTSSNTAYIHLSSLTSGDSAVYYCAGYVWFAYWGQGTLVTVSA VL: DVVMTQVPLSLPVSLGDQASISCRSSQRLVHSNGNTYLHWFLQKPGQSPKLLIYTVSNRFSGVPDRFSGSGSGTDFTLKISRVEAEDLGVYFCSQSTLVPWTFGGGTKLEIK	very low fluorescence signal	25 848				
Antibody 107C6: monoclonal anti-IL-18 antibody; VH SEQ ID NO 9, VK SEQ ID NO 10 (antibody, V domains shown, Antibody 107C6 VH variable domain sequence; Antibody 107C6 VK variable domain sequence) VH: QIQLVQSGPELKKPGETVKLSCRASGYTFTNYGMNWVKQAPGKGLKWMGWINTYSGVPTYADDFKGQFAFSLETSAATAFLQINNLKDEDTATYFCAREGYSTTRSMDYWGQGTSVTVSS VL: DIVMSQSPSSLAVSAGEKVTMSCKSSQSLLDSRTRKNYLVWYQQKPGQSPKLLIYWASTRGSGVPDRFTGSGSGTDFTLTISSVQAEDLAVYYCKQSYNLRTFGGGTKLEIK	very low fluorescence signal	26 250			1 389	
Antibody 108F8: monoclonal anti-IL-18 antibody; VH SEQ ID NO 11, VK SEQ ID NO 12 (antibody, V domains shown, Antibody 108F8 VH variable domain sequence; Antibody 108F8 VK variable domain sequence) VH: QIQLVQSGPDSKKPGETVKLSCRASGYTFTNYGMNWVKQAPGKGLKWMGWINTYSGVPTYADDFKGQFAFSLETSAATAFLQINNLKDEDTATYFCAREGYSTTRSMDYWGQGTSVTVSS VL: DIVMSQSPSSLAVSAGEKVTMSCKSSQSLLDSRTRKNYLVWYQQKPGQSPKLLIYWASTRGSGVPDRFTGSGSGTDFTLTISSVQAEDLAVYYCKQSYNLRTFGGGTKLEIK	very low fluorescence signal	25 126			1 292	

Results, then the molecule that gave them:

fluorescence signal after binding IL-18 in the presence of IL-18BP [1]	Monoclonal antibodies binding on IL-18, Fluorescence intensity (human interleukin-18)	Kd (IL-18 [2]; mean of determinations, read-out: KD, Mean) [nM]	Kd (IL-18 [2]; single determinations, read-out: KD)	IL-18BP binding on IL-18 previously complexed to monoclonal antibody, Fluorescence intensity (IL-18 [3])	Column #3 Monoclonal antibody binding on IL-18 previously complexed to IL-18BP, Fluorescence intensity ([1]; Luminex beads linked to IL-18BP, complexed to IL-18)	Molecule
very low fluorescence signal	24 838	0.015	0.02 nM and 0.01 nM	1 656	41	Antibody 131B4: monoclonal anti-IL-18 antibody; VH SEQ ID NO 18, 103 or 109, VK SEQ ID NO 19 (antibody, V domains shown) VH: EVQVQQSGAELVKPGASVKLSCTASGFKIKDTYIHWLKQRPEQGLEWIGRIDPANGNTIYGSKFQGKATITADTSSNTAYIQLSSLTSGDTAVYFCAGYVWFAYWGQGTLVTVSA VL: DAVLTQTPLSLPVSLGDQASISCTSSQSLVHSNGNTYLHWYLQKPGQSPKLLIYKVSDRFSGVPDRFSGSGSGTDFTLMITRVEAEDLGVYFCSQSSLVPWTFGGGTKLEVK
very low fluorescence signal	23 839			1 488		Antibody 132H4: monoclonal anti-IL-18 antibody; VH SEQ ID NO 23, VK SEQ ID NO 24 (antibody, V domains shown, Antibody 132H4 VH variable domain sequence; Antibody 132H4 VK variable domain sequence) VH: EVKLVESGGGLVKPGGSLKLSCAASGFTFSNYAMSWVRQNPAKRLEWVATISSGGANIYYPDSVKGRFIISRDNARNTLYLQMSSLRSEDTAMYYCARGDYFNHFWFAYWGQGTLVTVSA VL: DVLMTQTPLSLPVSLGDQASISCRSSQSIVHSNGNTYLEWYLQKPGQSPKFLIYKVSNRFSGVPDRFSGSGSGTDFTLKINRVEAEDLGIYYCFQGSHVPWTFGGGTKLEIK
